Data published in paper PMC6544321, “Structural insights into histone chaperone Chz1-mediated H2A.Z recognition and histone replacement” (PLoS Biology, 2019).

B1: middle and C-terminal region of Chz1 (Chz1 64-153) (domain or fragment, S. cerevisiae (budding yeast), UniProt P40019 64-153, looked up)
chain: TVEDSESDMDDAKLDALMGNEGEEEEDDLAEIDTSNIITSGRRTRGKVIDYKKTAEELDKKEPSTGSKDDVGYGEKEEDDEDEEDDDFKE
notes: Chz1, budding yeast, residues 64-153; only residues 142-153 are seen in the crystal structure; also called Chz1-MC; Chz1-MC WT; source: E. coli BL21-CodonPLUS(DE3)-RIPL, purified (Ni-NTA, HiTrap Q)
B2: single chain H2A-H2B with H2A NKLGNV→DSIRA (other)
chain: RKETYSSYIYKVLKQTHPDTGISQKSMSILNSFVNDIFERIATEASKLAAYNKKSTISAREIQTAVRLILPGELAKHAVSEGTRAVTKYSSSTQAQSRSAKAGLTFPVGRVHRLLRRGNYAQRIGSGAPVYLTAVLEYLAAEILELAGNAARDNKKTRIIPRHLQLAIRNDDELDSLIRATIAQGGVLPNI
B3: single chain H2A-H2B with H2A P50A (other)
chain: RKETYSSYIYKVLKQTHPDTGISQKSMSILNSFVNDIFERIATEASKLAAYNKKSTISAREIQTAVRLILPGELAKHAVSEGTRAVTKYSSSTQAQSRSAKAGLTFPVGRVHRLLRRGNYAQRIGSGAAVYLTAVLEYLAAEILELAGNAARDNKKTRIIPRHLQLAIRNDDELNKLLGNVTIAQGGVLPNI
B4: single chain H2A-H2B with H2A N91G (other)
chain: MRKETYSSYIYKVLKQTHPDTGISQKSMSILNSFVNDIFERIATEASKLAAYNKKSTISAREIQTAVRLILPGELAKHAVSEGTRAVTKYSSSTQAQSRSAKAGLTFPVGRVHRLLRRGNYAQRIGSGAPVYLTAVLEYLAAEILELAGNAARDNKKTRIIPRHLQLAIRGDDELNKLLGNVTIAQGGVLPNI
B5: middle region of Chz1 (Chz1 64-124) (domain or fragment, S. cerevisiae (budding yeast), UniProt P40019 64-124, looked up)
chain: TVEDSESDMDDAKLDALMGNEGEEEEDDLAEIDTSNIITSGRRTRGKVIDYKKTAEELDKK
notes: Chz1, budding yeast, residues 64-124; also called Chz1-M; source: E. coli BL21-CodonPLUS(DE3)-RIPL, purified (Ni-NTA, HiTrap Q)
B6: yeast single chain H2A-H2B (other)
chain: RKETYSSYIYKVLKQTHPDTGISQKSMSILNSFVNDIFERIATEASKLAAYNKKSTISAREIQTAVRLILPGELAKHAVSEGTRAVTKYSSSTQAQSRSAKAGLTFPVGRVHRLLRRGNYAQRIGSGAPVYLTAVLEYLAAEILELAGNAARDNKKTRIIPRHLQLAIRNDDELNKLLGNVTIAQGGVLPNI
modifications: Limits and order (H2B then H2A) are taken by homology from scZB in 2JSS/6AE8. The paper's H2B numbers are mature (+1 on precursor) and its H2A numbers are precursor. H2A.1 paralogue assumed.

Legend:
Conditions in all cases: both partners purified
[1] = molecular target: B4; assay: ITC; MicroCal VP-ITC, 25°C, 20 mM MES (pH 6.0), 0.5 M NaCl; chaperone (50 or 150 μM) injected into histones (5 μM scZB or 15 μM scAB and mutants) in the cell; one-site fit
[2] = molecular target: B6; assay: as above
[3] = molecular target: B3; assay: as above
[4] = molecular target: B2; assay: as above
[5] = molecular target: B1; assay: as above
[6] = molecular target: B6; assay: ITC; 0.2 M NaCl (Table 1); Swc2-Z or Chz1-M injected into single-chain histone dimers; otherwise as the ITC methods (25°C, 20 mM MES pH 6.0)
[7] = molecular target: B5; assay: as above
[8] = molecular target: T1, Swc2-Z, the 1–136 segment of the Swc2 subunit of the SWR1 complex (yeast); assay: as above
T1 construct: SWR complex protein 2 (Swc2), subunit of the yeast SWR1 complex, residues 1-136

[9] = molecular target: B5; assay: ITC; MicroCal VP-ITC, 25°C, 20 mM MES (pH 6.0), 0.5 M NaCl; chaperone (50 or 150 μM) injected into histones (5 μM scZB or 15 μM scAB and mutants) in the cell; one-site fit

Binder: B1
- stoichiometry N [1]: 1 sites
- stoichiometry N [2]: 0.9 sites
- stoichiometry N [3]: 1 sites
- stoichiometry N [4]: 0.9 sites

Binder: B2
- Kd [5]: 5080 ± 180 nM

Binder: B3
- Kd [5]: 530 ± 40 nM

Binder: B4
- Kd [5]: 420 ± 20 nM

Binder: B5
- stoichiometry N [6]: 1 sites
- stoichiometry N [2]: 0.7 sites

Binder: B6
- Kd [7]: 300 ± 2 nM
- Kd [8]: 200 ± 70 nM
- Kd [9]: 7870 ± 350 nM
- Kd [5]: 5020 ± 420 nM
